Laboratory results as given in publication PMC12174348 (Nature Communications, 2025).

Target: human NMDAR (GluN1 and GluN2B subunits) on HEK293 cells (Homo sapiens, UniProt Q05586;Q13224)
Experiment: cell-based or functional assay

B1: reference pathogenic anti-NMDAR autoantibody 502 Ab (antibody, V domains shown)
VH: QVQLQESGPGLVKPSQTLSLTCSVTGYSITSDYYWHWIRQPPGKGLEWIAYIRYDGRNDSNPSLKNRVTISRDTSKNQFSLKLSSVTAADTAVYYCAREDYASSSFDYWGQGTLVTVSS
VL: DIQMTQSPSSLSASVGDRVTITCRPSENIYSNLAWYQQKPGKAPKLLVYAATNLADGVPSRFSGSGSGTDYTLTISSLQPEDIATYYCQHFWDSPPTFGQGTKLEIK
- in vitro pathogenicity (NMDAR internalization) of 502 Ab, EC50; the sentence may also mean its binding: 0.021 µg/mL
